{
  "source": "paper PMC13056530",
  "target": "RorSlfn5, Schlafen nuclease fused to an Ig-like domain, from Raoultella ornithinolytica (Raoultella ornithinolytica)",
  "assay": "SEC-MALS",
  "data": [
    {"substance": "RorSlfn5, Schlafen nuclease fused to an Ig-like domain, from Raoultella ornithinolytica (enzyme)", "values": [
      {"measurement": "stoichiometry N", "value": 6}
    ]}
  ]
}
